According to patent publication US20160222130A1:

Target: human Tie2 (on human Tie2-expressing cells) (human) (UniProt Q02763)
Assay: cell-based or functional assay

Sequence of human Tie2 (on human Tie2-expressing cells) (human) (Q02763 23-1124): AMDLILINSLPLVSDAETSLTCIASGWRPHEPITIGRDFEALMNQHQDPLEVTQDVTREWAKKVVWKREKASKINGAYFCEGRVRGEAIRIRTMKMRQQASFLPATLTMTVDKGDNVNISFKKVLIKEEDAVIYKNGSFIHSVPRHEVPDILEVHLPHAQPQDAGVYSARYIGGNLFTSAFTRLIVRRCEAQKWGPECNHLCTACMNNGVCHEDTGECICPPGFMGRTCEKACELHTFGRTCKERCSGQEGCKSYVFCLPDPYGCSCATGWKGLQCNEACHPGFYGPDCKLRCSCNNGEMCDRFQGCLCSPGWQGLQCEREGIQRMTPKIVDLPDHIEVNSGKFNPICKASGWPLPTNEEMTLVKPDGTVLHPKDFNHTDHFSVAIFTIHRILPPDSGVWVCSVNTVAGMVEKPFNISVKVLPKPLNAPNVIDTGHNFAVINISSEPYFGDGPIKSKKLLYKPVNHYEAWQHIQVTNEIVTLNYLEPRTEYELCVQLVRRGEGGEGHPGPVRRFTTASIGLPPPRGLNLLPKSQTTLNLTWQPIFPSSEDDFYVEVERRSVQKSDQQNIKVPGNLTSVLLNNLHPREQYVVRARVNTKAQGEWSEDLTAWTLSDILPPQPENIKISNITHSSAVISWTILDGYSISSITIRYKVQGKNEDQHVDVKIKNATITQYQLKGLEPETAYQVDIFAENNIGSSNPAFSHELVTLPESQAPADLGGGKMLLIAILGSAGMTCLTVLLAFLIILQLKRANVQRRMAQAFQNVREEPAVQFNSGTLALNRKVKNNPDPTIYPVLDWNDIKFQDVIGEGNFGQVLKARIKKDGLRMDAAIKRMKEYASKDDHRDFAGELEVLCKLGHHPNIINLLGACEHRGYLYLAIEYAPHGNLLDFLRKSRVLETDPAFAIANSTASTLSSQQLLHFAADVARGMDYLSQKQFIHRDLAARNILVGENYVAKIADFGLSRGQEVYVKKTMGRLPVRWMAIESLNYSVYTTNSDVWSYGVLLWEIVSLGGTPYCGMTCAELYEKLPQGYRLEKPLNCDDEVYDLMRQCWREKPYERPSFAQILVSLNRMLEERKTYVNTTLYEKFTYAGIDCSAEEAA

EC50 value of anti-apoptotic activity, human Tie2-expressing BaF3 cell: 0.0393 µg/mL
Maximum activity of anti-apoptotic activities (Ang-1 = 100%): 67%
Substance: Ang-2 (R&D, 623-AN-025) (from UniProt O15123 19-496) (ligand)
